Source: paper PMC11239673, “Structural basis for the bi-specificity of USP25 and USP28 inhibitors” (EMBO Reports, 2024)
Several values for one entry are separate records, joined by “and”; a condition that tells them apart may be missing. Equal values may be shown once.

Legend:
Conditions in all cases: remark: other sources report otherwise
[1] = biological target: T1, full-length USP25 (USP25 1-1055) (human), Q9UHP3; assay: SEC-MALS; tetramer to dimers; 10 µM USP25fl with 5, 10 or 20 µM racemic FT206, 45 min incubation at 4 °C; Superose 6 10/300 GL; 20 mM HEPES pH 8.0, 150 mM NaCl, 1 mM TCEP
T1 chain: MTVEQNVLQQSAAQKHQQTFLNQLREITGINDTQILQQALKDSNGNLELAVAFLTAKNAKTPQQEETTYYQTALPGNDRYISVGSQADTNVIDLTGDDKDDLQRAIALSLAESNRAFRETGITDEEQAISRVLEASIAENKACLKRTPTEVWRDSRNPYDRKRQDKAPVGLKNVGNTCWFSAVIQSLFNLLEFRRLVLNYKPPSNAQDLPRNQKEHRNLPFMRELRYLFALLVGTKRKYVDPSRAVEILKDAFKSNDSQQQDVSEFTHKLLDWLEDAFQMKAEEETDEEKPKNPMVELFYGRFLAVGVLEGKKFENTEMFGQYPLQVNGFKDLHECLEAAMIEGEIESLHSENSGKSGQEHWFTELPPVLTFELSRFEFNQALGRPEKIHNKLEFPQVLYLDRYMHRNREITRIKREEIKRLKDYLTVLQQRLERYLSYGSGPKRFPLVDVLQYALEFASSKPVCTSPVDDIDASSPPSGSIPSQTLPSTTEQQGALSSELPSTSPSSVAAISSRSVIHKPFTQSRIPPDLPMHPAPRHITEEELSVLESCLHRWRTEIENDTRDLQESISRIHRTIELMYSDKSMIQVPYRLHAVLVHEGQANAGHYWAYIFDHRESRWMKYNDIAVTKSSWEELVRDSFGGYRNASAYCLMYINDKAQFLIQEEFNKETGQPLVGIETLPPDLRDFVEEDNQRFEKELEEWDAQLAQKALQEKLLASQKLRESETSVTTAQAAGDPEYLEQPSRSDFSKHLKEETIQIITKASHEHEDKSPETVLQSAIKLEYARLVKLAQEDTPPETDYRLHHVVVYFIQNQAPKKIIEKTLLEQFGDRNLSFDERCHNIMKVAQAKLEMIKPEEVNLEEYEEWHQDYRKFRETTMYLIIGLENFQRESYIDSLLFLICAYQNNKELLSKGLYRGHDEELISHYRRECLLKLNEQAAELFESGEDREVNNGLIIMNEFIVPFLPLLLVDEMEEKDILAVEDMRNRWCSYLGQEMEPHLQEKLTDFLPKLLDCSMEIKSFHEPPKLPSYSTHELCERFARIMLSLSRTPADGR

[2] = biological target: T1, full-length USP25 (USP25 1-1055) …; assay: SEC-MALS; tetramer to dimers; 10 µM USP25fl with DMSO control, 45 min incubation at 4 °C; Superose 6 10/300 GL; 20 mM HEPES pH 8.0, 150 mM NaCl, 1 mM TCEP
[3] = biological target: T1, full-length USP25 (USP25 1-1055) …; assay: SEC-MALS; tetramer to dimers; 20 µM USP25fl with 60 µM VSM, 45 min incubation at 4 °C; Superose 6 10/300 GL; 20 mM HEPES pH 8.0, 150 mM NaCl, 1 mM TCEP
[4] = biological target: T1, full-length USP25 (USP25 1-1055) …; assay: SEC-MALS; tetramer to dimers; 10 µM USP25fl with 5, 10 or 20 µM AZ1, 45 min incubation at 4 °C; Superose 6 10/300 GL; 20 mM HEPES pH 8.0, 150 mM NaCl, 1 mM TCEP
[5] = biological target: T1, full-length USP25 (USP25 1-1055) …; assay: SEC-MALS; tetramer to dimers; 20 µM USP25fl with 60 µM racemic FT206, 45 min incubation at 4 °C; Superose 6 10/300 GL; 20 mM HEPES pH 8.0, 150 mM NaCl, 1 mM TCEP
[6] = biological target: T1, full-length USP25 (USP25 1-1055) …; assay: SEC-MALS; tetramer to dimers; 20 µM USP25fl with 60 µM AZ1, 45 min incubation at 4 °C; Superose 6 10/300 GL; 20 mM HEPES pH 8.0, 150 mM NaCl, 1 mM TCEP
[7] = biological target: T1, full-length USP25 (USP25 1-1055) …; assay: SEC-MALS; tetramer to dimers; 20 µM USP25fl with DMSO control, 45 min incubation at 4 °C; Superose 6 10/300 GL; 20 mM HEPES pH 8.0, 150 mM NaCl, 1 mM TCEP

B1: full-length USP25 (USP25 1-1055), Q9UHP3 1-1055 (enzyme)
chain: T1 chain
- percent dimers (with 10 µM FT206) [1]: 50%
- percent dimers (with 20 µM FT206) [1]: 76%
- percent dimers [2]: 25%
- percent dimers (DMSO control of the AZ1 series) [2]: 23%
- percent dimers (DMSO control of the FT206 series) [2]: 28%
- percent tetramers [2]: 75%
- stoichiometry N [2]: 4 and 2
- percent dimers (with 60 µM VSM) [3]: 75%
- percent dimers (with 20 µM AZ1) [4]: 46%
- percent dimers (with 60 µM FT206) [5]: 77.7%
- percent dimers (with 60 µM AZ1) [6]: 80.8%
- percent dimers (DMSO control) [7]: 26.2%
